Source: paper PMC9674853, “Biasing the conformation of ELMO2 reveals that myoblast fusion can be exploited to improve muscle regeneration” (Nature Communications, 2022)

Target: T1, murine ELMO2 full-length, wild type (mouse, UniProt Q8BHL5 1-732)
T1 construct: ELMO2, murine cDNA cloned into pGEX4T1; called full-length in the ITC methods; Thrombin was added to the glutathione eluates overnight before size exclusion; also called ELMO2 WT; WT ELMO2; source: E. coli BL21 codon+, purified (glutathione resin, thrombin, S75 size exclusion)
T1 sequence (looked up): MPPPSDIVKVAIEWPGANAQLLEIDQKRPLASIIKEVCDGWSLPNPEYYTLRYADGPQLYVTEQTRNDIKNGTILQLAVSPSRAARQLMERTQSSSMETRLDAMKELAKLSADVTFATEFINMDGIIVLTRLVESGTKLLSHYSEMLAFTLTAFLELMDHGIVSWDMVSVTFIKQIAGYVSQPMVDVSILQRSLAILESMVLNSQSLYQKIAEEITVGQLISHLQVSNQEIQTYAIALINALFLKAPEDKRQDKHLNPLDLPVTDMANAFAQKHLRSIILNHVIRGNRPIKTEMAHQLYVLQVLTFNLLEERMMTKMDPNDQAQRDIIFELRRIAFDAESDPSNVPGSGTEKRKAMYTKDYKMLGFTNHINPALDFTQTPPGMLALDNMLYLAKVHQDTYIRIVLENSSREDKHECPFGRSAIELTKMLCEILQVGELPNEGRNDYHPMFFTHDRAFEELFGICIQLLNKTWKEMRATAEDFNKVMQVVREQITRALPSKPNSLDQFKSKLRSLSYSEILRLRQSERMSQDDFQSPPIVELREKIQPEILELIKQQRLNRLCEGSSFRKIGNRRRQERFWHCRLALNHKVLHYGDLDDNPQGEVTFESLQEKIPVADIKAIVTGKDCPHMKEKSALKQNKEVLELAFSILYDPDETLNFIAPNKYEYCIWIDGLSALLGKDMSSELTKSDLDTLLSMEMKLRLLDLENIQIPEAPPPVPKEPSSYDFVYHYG
Assay: ITC; 500 μM RHOG titrated into 40 μM Elmo2 full-length (WT or L43A); MicroCal ITC200, 25 °C; 20 mM Tris pH 7.5, 100 mM NaCl, 5 mM MgCl2, 1 mM DTT; one-site binding model
Conditions: both partners purified

B1: human RHOG (residues 1-179) (domain or fragment)
chain: not shown
notes: RHOG, human, residues 1-179, cloned into pDEST17 with a thrombin cleavage site between the 6xHIS-tag and the GTPase; For NMR uniformly 15N-labelled (M9 medium with 15NH4Cl) and loaded with GMPPNP; For ITC made in LB; also called RHOG-GMPPNP; HIS-RHOG; source: E. coli BL21 codon+, purified (Ni-NTA, thrombin cleavage, S75 size exclusion)
Kd: 10.3 µM
